Measurements as given in patent US20260265394A1 (CARTESIAN THERAPEUTICS, published 2026).

Legend:
soluble BCMA [1] = molecular target: T1, soluble BCMA (UniProt Q02223 1-54, limits assumed); experiment: titration, '% of Max Binding' against 'Log Conc (nM)'; apparent affinity of anti-BCMA CAR to soluble BCMA; the text does not describe the assay
T1 sequence (looked up): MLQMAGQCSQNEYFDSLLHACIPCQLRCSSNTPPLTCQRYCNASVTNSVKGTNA

soluble BCMA [2] = molecular target: T1, soluble BCMA; experiment: apparent affinity of anti-BCMA CAR to soluble BCMA (FIG. 10A); method not described

B1: anti-BCMA scFv1 (as CAR), Example 16 (scFv)
scFv: DIVLTQSPPSLAMSLGKRATISCRASESVTILGSHLIHWYQQKPGQPPTLLIQLASNVQTGVPARFSGSGSRTDFTLTIDPVEEDDVAVYYCLQSRTIPRTFGGGTKLEIKGSTSGSGKPGSGEGSTKGQIQLVQSGPELKKPGETVKISCKASGYTFTDYSINWVKRAPGKGLKWMGWINTETREPAYAYDFRGRFAFSLETSASTAYLQINNLKYEDTATYFCALDYSYAMDYWGQGTSVTVSS
Soluble BCMA [1]
  EC50 (read off the curve): ~10 nM
Soluble BCMA [2]
  Kd: 3.2 nM
